Experiment: soluble on expression in E. coli; label from the status in PepcDB or PDB records

| Sequence | soluble on expression in E. coli |
| --- | --- |
| SLRFLGEKAAAKRQVLNADSVEQSFVGLKQLISCRNWRAAVDLCGRLLTAHGQGYGKSGLLTSHTTDSLQLWFVRLALLVKLGLFQNAEMEFEPFGNLDQPDLYYEYYPHVYPGRRGSMVPFSMRILHAELQQYLGNPQESLDRLHKVKTVCSKILANLEQGLAEDGGMSSVTQEGRQASIRLWRSRLGRVMYSMANCLLLMKDYVLAVEAYHSVIKYYPEQEPQLLSGIGRISLQIGDIKTAEKYFQDVEKVTQKLDGLQGKIMVLMNSAFLHLGQNNFAEAHRFFTEILRMDPRNAVANNNAAVCLLYLGKLKDSLRQLEAMVQQDPRHYLHESVLFNLTTMYELESSRSMQKKQALLEAVAGKEGDSFNTQCLKLA | not soluble |
| MGSSHHHHHHSSGLVPRGSHMTVEQTPENPGTAARAAAEETVNDILQGAWKARAIHVAVELGVPELLQEGPRTATALAEATGAHEQTLRRLLRLLATVGVFDDLGHDDLFAQNALSAVLLPDPASPVATDARFQAAPWHWRAWEQLTHSVRTGEASFDVANGTSFWQLTHEDPKARELFNRAMGSVSLTEAGQVAAAYDFSGAATAVDIGGGRGSLMAAVLDAFPGLRGTLLERPPVAEEARELLTGRGLADRCEILPGDFFETIPDGADVYLIKHVLHDWDDDDVVRILRRIATAMKPDSRLLVIDNLIDERPAASTLFVDLLLLVLVGGAERSESEFAALLEKSGLRVERSLPCGAGPVRIVEIRRA | soluble |
| MIKIAIPTSKGGLEDKVHESLVRAETFTLVEVKDGKIERIEVVENPHKNEPYGAGSKVAIFLVNNGVNILLTPMDCPKGKAILEAGGVKIIKVKQGKSVKEVIEAFQSSSSGYSLQ | soluble |
| DITEIEEAMNRQRVAGRVFEASQDGLIVLNHKGVITMVNPAVTKLVGLEIDQLVGQSFIQTIRWRKLQEMMPSIIESIENYGVWQGEVIEQNHLGLLVPMFARVNRIVKCENNGFYDLVIILTD | not soluble |
| MGSDKIHHHHHHLNNCGMVAWIMTLYTPEKPRGFDLIVIGNDVTFQSGSFGTAEDDLFAAASTYSREHKLPRVNVSVNSGARIGLSTKISKLVKLQLENEDKPEQGFEYIYIDGEHKAQIEGEVVYEELGNGRLKILAVIGAKNEKIGVENLQGSGLIAGETARAYAEVPTYCYVTGRSVGIGAYTARLAHRIVQHKQSHLILTGYEALNTLLGKKVYTSNNQLGGPEVMFRNGVTHAVVDNDLEGIAKVIRWMSFLPTPTEEFPFFSKHGDDCSARDVVIPSDSEQNTYDVRDLIDSKNLSNQTGICDTMSFDEICGDWAKSIVAGRARLCGIPIGVVSSEFRNFSTIVPADPAIDGSQVQNTQRAGQVWYPDSAFKTAEAINDLNKENLPLMIIASLRGFSGGQKDMYDMVLKFGAQIVDALAVYNRPVIVYIPEAGELRGGAWAVLDSKIRPEFIHLVADEKSRGGILEPNAVVGIKFRKPMMMEMMKRSDPTYSKLSSSTEPEAREQLEERYEELSKTYRNASVEFADAHDRWQRMKSVGVVEHVTSLTNSRRLFSELLRNEL | not soluble |
| MERNYEESALFEHQFWLKVLTDHSQFLLDALAPKEKEDIKKATYFVETFTNLLNKVRNVNLIAFSKEAERAAKEIRTFKLSIIQKQLEGKITIHFTPTFINHMVNEVEEYITVLEFLNKGEVPPVFHELHYHLVWLTDAAGHAGSISGGLDLVEKRLKEKSEEFTKHFEQFYLKAVEMTGYLRTELHHFPALKKFTKDVSLELKLFSHFLHEVEELELSNEILSALSARMADHMAREECYYLLKLAQSSGLEMPKCNPL | not soluble |
| GSAHRFPALTQEQKKELSEIAQSIVANGKGILAADESVGTMGNRLQRIKVENTEENRRQFREILFSVDSSINQSIGGVILFHETLYQKDSQGKLFRNILKEKGIVVGIKLDQGGAPLAGTNKETTIQGLDGLSERCAQYKKDGVDFGKWRPVLRIADQCPSSLAIQENANALARYASICQQNGLVPIVEPEVIPDGDHDLEHCQYVTEKVLAAVYKALNDHHVYLEGTLLKPNMVTAGHACTKKYTPEQVAMATVTALHRTVPAAVPGICFLSGGMSEEDATLNLNAINLCPLPKPWKLSFSYGRALQASALAAWGGKAANKEATQEAFMKRAMANCQAAKGQYVHTGSSGAASTQSLFTACYTY | soluble |
| MWAFPERFEGRHVRLEPLALAHLPAFLRHYDPEVYRFLSRAPVAPTEEALRAHLEGLLGEPGRVNWAILFGKEVAGRISVIAPEPEHAKLELGTMLFKPFWGSPANKEAKYLLLRHAFEVLRAERVQFKVDLRNERSQRALEALGAVREGVLRKNRRLPDGAFRDDVVYSVLKEEWPGVKARLEARLYGASGNP | soluble |
| MLVVLAISLAVTAVCAQYGSGPANNPPASSYSSNVYYPPPVYGSVYWDYDSGSREHRHKQCPRLRAYVGEFPGIPEEAFYPPIIRYVKYNRKVTALVVCDRDEKNLNFLFARHNKTRDVRSASVVAIGSTAGVTLVCNRDDRRYEGFVIDMNATTNGFSKKIEITQLTCLGLDKTIIGLPVEHGVQQLAQKIQEILEDDFFVPVIPSRRKRQAGGATANSAESTTEAADTESTTEAAATETPAAESTTTEASATDAAATEASATDAAATEGAVTKAAAGVTEESATEVITVATTPASPDAALNNAINELGKILGQVF | not soluble |
| GSSHHHHHHMGNVFDYEDIQLIPAKCIVNSRSECDTTVTLGKHKFKLPVVPANMQTIIDERIATYLAENNYFYIMHRFQPEKRISFIRDMQSRGLIASISVGVKEDEYEFVQQLAAEHLTPEYITIDIAHGHSNAVINMIQHIKKHLPESFVIAGNVGTPEAVRELENAGADATKVGIGPGKVCITKIKTGFGTGGWQLAALRWCAKAASKPIIADGGIRTNGDVAKSIRFGATMVMIGSLFAGHEESPGETIEKDGKLYKEYFGSASEFQKGEKKNVEGKKMFVEHKGSLEDTLIEMEQDLQSSISYAGGTKLDSIRTVDYVVVKNSIFNGDKVY | soluble |
| MGSDKIHHHHHHMTIRSKFALFAGSSSYILLHKILHRGGTSLPGKIAYRIDPTFLEEFRDQIETVIVSGTNGKTLTTALCARVLKKTNRVVVTNNSGSNMIQGIVAALLSQKDKIKKSIRHGTIPIAVLEVDEANVKEVAKILQPTHFVLTNIFRDQMDRYGEIYTTYEKITDGIKTAPKAKVVANGDSPIFARKPYKNQAVYFGFTHKKSVGDLRAPNNTDGVLAPTNDQVLHYHYLTYANLGDYFTKDGSFKRPQLKYSVNKINSLTPSKSEFEIAGNKFTLPLGGLYNIYNALAAYSLGREFQISAEDIFNALNEDSRIFGRQEQLTIGSHLVTIVLIKNPVGANSVIDMMMTDPEEFSLVTLLNANYADGIDTSWIFDAEFEKLHQTALKKIIVGGQRYKDFSVRLKMAGFKNQIVEQDFAKLIDRIKELPTKNVYVAATYTSMLMFREELAKAGLAKESF | not soluble |
| MSLPNSEDLRKPDAQREVGRHYPVTLDNQLVSTPEEEVIAPPSVMLRWETYQVANGESAALLFQRAGLSSRVLYELTSSNSDINNQLSKLMPKDELKFGFDKDNQLVQLKRTISPYETFVVTRSDSGFTSEFDKKEVTFQLNYAEAKITSNFWNAGVTAGLSANQIIELANMFGWDIDFALDIREGDQFKLLYQEKIVEGSVIGRGNIIAATFINQGSTFTAILDDNTGNYYDQNGRAMKKAFLRSPLDFRRVSSNFNPRRLHPVTGQIKAHRGTDYVAPVGTPIWAAGDGVVEKSSYNQFNGNYVYIRHSNTYITKYLHLQRRLVKTGERVKQGQTIGTLGGTGRVTGPHLHYEFLVNGIHKNPRTVELPQAQSLTGKAKETFIANAKQRMEKLERYSQLLYANQEGHHHHHH | soluble |
| MGSDKIHHHHHHMMAQFEYSTLAHPQDIQQLEHILEQCFISALGGEEAYINMIGVENFRIIRRLEQVAGGLATLDMGQWWGGQRVPMTGIAVVGIAPEYRGSGAAIALMQHTLKELYDRGIAISALYPAVQSLYRKVGYEQGGSWCIWEIATQNIQVREQPLPLELVASINHEVFHELYQQQARQTHGYLDRHPAIWERIIQPNDKEIVYTYLIGTKDQPQGYIIFTQERTNNGEILFVKDWVLTTVAAAQTFWSFLASHRSQIQQVRWKSSAIDSLTLLLPEQTAKIQTTSRWLLRIIDVVKALELRGYPPGIQAELHLEIQDNLLTENNGKFILSVANGRGEVTKGGKGELQLDIRELAPLYTSLFTPYHLQIAGKLNGTETAILTATQIFAGASPWMADFF | not soluble |
| MGSDKIHHHHHHMKDNFFGREYDIAPAGGETGQAFVATHEDEKFFLKRNSSPFLAALSVENIVPKLVWTRRVENGDVITAQKWVNCHILTREEMVGPRVAKLLAKIHHSENLQHMLAKIENCYFSADQLLSLIKVNTKANNELSKEIIAAIRYLEQNLSAAQTNDYVVCHGDVNHNNWIISEENELFLVDWDGAMLADPANDIGMILYQYIPRKDWVSWLSNYGTTLTEELHRKLKWYTICQTVMQLITEHSNEANERAKQIFQNAIEDDEV | not soluble |
| MNHVSHTGSYYAASANDKVQRSKLTEDITADICVVGSGFTGLSSALHLAEKGFKVVVVEGSRIGFGASGRNGGQLVNSYSRDMDFIERNYGKHVSTEMGQMAFEGSRIIKRLINDYDIKCDLRPGGVFAACNSKQLDEMAEKQKLWAKHGYHETELLSASDIQNHVGTERYVGGLLDKAGGHIHPLNLALGEAAAFEKLGGIIYEDSIVVDIVHGKKAVIKTDSGSVTADFVVVAGNAYLEGLLPKQQKQSMPCGTQIITTEVLPEAMQKQLLPTDVCVEDCNYLLDYFRLSGDGRLIYGGGTTYGAREPSKIESIIIPKMLKTFPQLKDVKIDYAWTGNFLLTLMRLPQFGRINDNVYYAQGYSGHGVTSTHLAGKVIADAITGQAERFDVFAGLPQYPFPGGRLFKTPYTAMGAWYYQMRDKLGILEHHHHHH | soluble |
| MILNPQQRTKLDSRRDDLFYAAPRFVTHVDDFFLARLTDLYRQYLQPQMRVLDLMSSWVSHLPPELSFQEVVGHGMNAAELARNPRLDRYFVQNLNEELALPLEDASFNAVLMAVSVQYLQYPEATFTEIARILKPQGVVIVSFSNRMFFEKAIQAWREGSEGDRVQLVQTYINSTPSLKVIATHLPRLWPWRGFTDPFYAVVGQKQAVLEHHHHHH | soluble |
| MRYLSNLLCLTLTFIVCFGAERDADEEAYVLMNLLKQSIDMDQTEALPGFVSRDFTYDTCKGIWNRDKYMEYLKVFSSRPDGGMQPMSTDWKVTNAHFNDNTLYFNIHNYNQHLAIYPDLEFEAKKIGKDERYILTRGKISKCGTLEKEY | not soluble |
| MGSDKIHHHHHHMMDFDFLEGKRLTEDVALDETMVWNEDIEMLDLHLVATSALIGVVHRVSYELLSRYLPNDYTAVVVETLARHVKAVPTGTRVAVGVRVVGVVGNRVKFRGIVMSGDEKILEAEFVRAIVPREKLRRLALEKAEKTSRLFGI | soluble |
| MTKKQKEILFCDYFEEWVEVYKVGAIAKITLAKYYNAAKQLRDLCPKLFISDFDRREYQRIINVYAETHEKQTVKDFHHHVKACIKDLFHDGLIDKDPTYRVVIKGAELEHHHHHH | soluble |
| MKRYTPDFPEMMRLCEMNFSQLRRLLPRNDAPGETVSYQVANAQYRLTIVESTRYTTLVTIEQTAPAISYWSLPSMTVRLYHDAMVAEVCSSQQIFRFKARYDYPNKKLHQRDEKHQINQFLADWLRYCLAHGAMAIPVYLEHHHHHH | soluble |
| PREIVDFHAKLINDTPLSTYVGFLDDLQEHDEIDNARALSGIPGVVIVGEQDAVTPQSQSERIVSLWSDAGLQIAPNAGHMIILEQPAIVNKAIDQMVQQAAQNVQKDDA | not soluble |
